Results reported in a protein production outcome set (Wang et al. 2014).

Assay: label from the status in PepcDB records

| Sequence | protein production |
| --- | --- |
| MGLTKQYLRYVASAVFGVIGSQKGNIVFVTLRGEKGRYVAVPACEHVFIWDLRKGEKILILQGLKQEVTCLCPSPDGLHLAVGYEDGSIRIFSLLSGEGNVTFNGHKAAITTLKYDQLGGRLASGSKDTDIIVWDVINESGLYRLKGHKDAITQALFLREKNLLVTSGKDTMVKWWDLDTQHCFKTMVGHRTEVWGLVLLSEEKRLITGASDSELRVWDIAYLQEIEDPEEPDPKKIKGSSPGIQDTLEAEDGAFETDEAPEDRILSCRKAGSIMREGRDRVVNLAVDKTGRILACHGTDSVLELFCILSKKEIQKKMDKKMKKARKKAKLHSSKGEEEDPEVNVEMSLQDEIQRVTNIKTSAKIKSFDLIHSPHGELKAVFLLQNNLVELYSLNPSLPTPQPVRTSRITIGGHRSDVRTLSFSSDNIAVLSAAADSIKIWNRSTLQCIRTMTCEYALCSFFVPGDRQVVIGTKTGKLQLYDLASGNLLETIDAHDGALWSMSLSPDQRGFVTGGADKSVKFWDFELVKDENSTQKRLSVKQTRTLQLDEDVLCVSYSPNQKLLAVSLLDCTVKIFYVDTLKFFLSLYGHKLPVICMDISHDGALIATGSADRNVKIWGLDFGDCHKSLFAHDDSVMYLQFVPKSHLFFTAGKDHKIKQWDADKFEHIQTLEGHHQEIWCLAVSPSGDYVVSSSHDKSLRLWERTREPLILEEEREMEREAEYEESVAKEDQPAVPGETQGDSYFTGKKTIETVKAAERIMEAIELYREETAKMKEHKAICKAAGKEVPLPSNPILMAYGSISPSAYVLEIFKGIKSSELEESLLVLPFSYVPDILKLFNEFIQLGSDVELICRCLFFLLRIHFGQITSNQMLVPVIEKLRETTISKVSQVRDVIGFNMAGLDYLKRECEAKSEVMFFADATSHLEEKKRKRKKREKLILTLT | failed |
| MGNGVQPLDPVAIQIGSISVKWYGVIIASAVVIALLLALSEANKRKMDKEIIVDLLIWAIPISIISARIYYVIFEWDFYKNNLGEIVKIWHGGIAIYGALIGAVLTAIIFSRIKKISFWQLADVVAPSLIIAQAIGRWGNFMNQEAHGAETTRSFLESLHLPDFIINQMYIDGAYYQPTFLYESLWNVLGFVILLIIRRTKIRRGELFLGYVIWYSFGRFFIEGMRTDSLMWGDFRVSQALSLLLIVLSIGIIIYRRLKMNPPYYMEDKFGKVVKKK | not failed |
| MGNLKLALIIKSPRDDVEFLLEKQKQPAKFGDEAYDSFVDSDLWDLPSTDLQALEDGVRSGFSISILDSCSEEVDLMNFDFESTLILLLENLGIDISDVGEWRFVRSVEEPEFGPDSCVRTCFISGKLLNTDQSLQDNCKWMSMESCFDSLIDVKLGSDRVGPLVLLGLGDGSRQSMKHKLSSSLAIQEYPPGVMIVPMHSKTLKPFRTTNLVVFAPENGLGDHQGADFVAHGDALIVDPGCLSKLHVELKKIVDALPRKLIVFVTHHHRDHIDGLSAIQESNPDAILVAHAKTRHRIGGWSGNYTPVSGGENIYVNGQKLTVIFAPGHTDGHMSLLHTSTQSLIVGDHCVGQGSAFLDIRAGGNMTDYFQSTYKFLELSPNVVIPMHGRVNLWPKHMLCGYLKNRRSREKSILKATVDGAQTLYDIVAKVYSSVDRKFWWAASSNVRLHIEKLAVENKLPEGFSIQKFKASCGLRFAIRCTVGYIISKIPFKINKPGFIMSVMAAGAGYFLLYTSKKKNQIES | failed |
| MGNLPALSWGPAGPLARTCGTSYGASDAQDLRRHAKIGSVELTLLGTGAPAGLPRPDCPCAACATALGEAARAATALLVDGTVLLDLTPGAAFAAARAGRSLGGVRQVLLSHPHNGPAVEVPAGLPQPARVPDGRELALLTGHRVRAMPMDAPGTGYAVTGPDGQRLLYLPPGGAPAGLDETVQPYDMVAADVVGRPDALARLRAVGALGPTTDVIAVHLDHDVPPGVELRRRLAAAGARAVPDGTTLTVGVYEDVPDVPRRTLVLGGARSGKSVEAERRLESFPDVLYVATGGSRGGDTEWAERVSVHRERRPGSWRTVETCDLVPLLKEDGPPLLIDCLSLWLTDAMDSVNAWDDDEWAGGGERALRGRVEELTAAVRETGRTVVAVSNEVGSGIVPATASGRRYRDELGRLNAAFAAECEHLLLVVAGQAMVLRGG | failed |
| MGNLPPHYGGSVNLLIAALGVLGVASSGPLIAGTLGATSVTALAIAFWRNAIGAVVMAGPVVIREPKAFGRITRREFGWSAVAAVALAFHFACFITALQLTSVAAATALVCLQSGWIAVFQLFRGTRHRWPVLVGLGIAFGGVVAITGFDMGSSPEALLGDLLALAGGALAGLYTLAGGKARQSMGTGTYTTLCYGMCAAIVAVMALFSGQPLAGFDAGGWLGIIAITVCAQLVGHTAFNHLLATMSPLLVSMIILLEIPGAAILAAIFLNETLPAGTYAGLALILVGLAVVVSGQRRGRPVADRREAELGAD | failed |
| MGNLSLGELELTVLYDEERYDIVEQTETVQVDLEGPRGVLTVFRFARPSYEVFVDLTEAGEGSHTVDVEHRGFPGDLAVTVEPRLEHHHHHH | failed |
| MGNQFSINRNRPANAGEAHASSTEAKPAPDAASPSRQVRVATAPSILEGLRKLRLPFNFGARVPPLPEETWAEIARRVDTKTLHRMRAVSKTLKAAADTEIRQLTVNTVEALQAAKRYACLETLKMDGYFGDADLEGLPASLRELDLFSTRYVSAKGLAHLSKLPLVRLKVRANGIHAEAARALAASTTLTALDIRGNGIGDAGAQALAANTSITSLDASFNDIGVAGARALAANTTLTSLDLGFNAIGDEGLQALATNTSLTSLTVGSCEIGDAGAAALANNTALTSVDLTCNHIGEEGAEGLAANTVLTSLDLTRNSISDRGAAALAGNTTLTSLCVNFNDIYGRGARWLAENTTLTTLDISYNPIGDWGALGLADNMTLRSLSVVAGRIGVEGARALAGNTTLTTLDISVNAIGNEGAQALAANATLTTLSLRSCELRAAAAEAFKANTTLASLDIGENRIEAAGAQALADNTALTTLRVTGNQIGMAGAQALAANRSLTKLNISQNDIRSAGAQALAANTSLTSLDVSSASIGAAGAQALAANTSITWLNINDNHIGDAGAQALAAHPALTSLYACDNFIGTAGVQALAANTRLTSLSIWGNRIGDAGVKALAANTTLTKLTIGKRVDKQLGEQIGDLAWQELMASVDRSGMTFHSL | failed |
| MGNTDKLMNQIFDLKFTSKSLQRQSRKCEKEEKAEKLKVKKAIEKGNMDGARIYAENAIRKRSEQMNYLRLASRLDAVVARLDTQAKMTTITKSMTNIVKSLESSLATGNLQKMSETMDSFEKQFVNMEVQAEFMENAMAGSTSLSTPEGEVNSLMQQVADDYGLEVSVGLPQPAGHAIPTKTEEKVDEDDLSRRLAELKARG | failed |
| MGNYMTYIVGLTGGIGSGKTTIANLFTDLGVPLVDADVVAREVVAKDSPLLSKIVEHFGAQILTEQGELNRAALRERVFNHDEDKLWLNNLLHPAIRERMKQKLAEQTAPYTLFVVPLLIENKLTALCDRILVVDVSPQTQLARSAQRDNNNFEQIQRIMNSQVSQQERLKWADDVINNDAELAQNLPHLQQKVLELHQFYLQQAENKNA | not failed |
| MGPTLGPAPLRGKSIPMNRTGRALTLGCLLLLQPLLAHAQAGGNSLLIPALGRCTLDPQAQDQAEALTACQKAADEGDAEAQYELGEFYYEGKGAPQDFNQALSYFEKASLQGHAQAQFKLGTMFFHGEGVPANNVQAYIVLKMAAVNGAEDALDTADEVAEHMQRDELEVATQVLGQIFRKYLMELQSADGRSPFSPLP | failed |
| MGQAFAALSVWQVMGYGLVFFGGIYLLFGAATWLLTRRVLPALGVGRPLDPRPLGPGQWRREFLQSGLSVLIFGLGMVFPWGLVQLGWARLDDDAGPWRIVAEILVLVIWNDVHFWINHRLLHTRLLRRFHLPHHRSVVTTPFSTYSFHPIEALMLGNVILLPMVVHDFSFWSLLSVPLFSLFFNCVGHANYDFFPGVSYAHWFAASRRHHLHHACYQGNFGFQFTFMDRLFGTRLGADAAQGQLAAYRKRGAVGSAR | failed |
| MGQALGCIQVDQSNVAIKETFGKFDEVLEPGCHCLPWCLGSQVAGHLSLRVQQLDVRCETKTKDNVFVTVVASIQYRALAESAQDAFYKLSNTRNQIQAYVFDVIRASVPKLDLDSTFEQKNDIAKTVETELEKAMSHYGYEIVQTLIVDIEPDVHVKRAMNEINAASRMREAASEKAEAEKILQIKRAEGEAESKYLSGMGIARQRQAIVDGLRNSVLAFSESVPGTSSKDVMDMVLVTQYFDTLKEIGASSKSNSVFIPHGPGAVRDIASQIRDGLLQGNSAAE | failed |
| MGQIGVEITGVITDISEIKTFKRRDGSLGKYKRITIADKSGTIRMTLWDDLAELDVKVGDVIKIERARARKWRNNLELSSTSETKIKKLENYEGELPLEHHHHHH | not failed |
| MGQKIHAFMFPWFAFGHMTPYLHLGNKLAEKGHRVTFLLPKKAQKQLEHQNLFPHGIVFHPLVIPHVDGLPAGAETASDIPISLVKFLSIAMDLTRDQIEAAIGALRPDLILFDLAHWVPEMAKALKVKSMLYNVMSATSIAHDLVPGGELGVAPPGYPSSKALYREHDAHALLTFSGFYKRFYHRFTTGLMNCDFISIRTCEEIEGKFCDYIESQYKKKVLLTGPMLPEPDKSKPLEDQWSHWLSGFGQGSVVFCALGSQTILEKNQFQELCLGIELTGLPFLVAVKPPKGANTIHEALPEGFEERVKGRGIVWGEWVQQPSWQPLILAHPSVGCFVSHCGFGSMWESLMSDCQIVFIPVLNDQVLTTRVMTEELEVSVEVQREETGWFSKENLSGAIMSLMDQDSEIGNQVRRNHSKLKETLASPGLLTGYTDKFVDTLENLVNEQGYIS | failed |
| MGRAFEYRRAAKEKRWDKMSKVFPKLAKAITLAAKDGGSEPDTNAKLRTAILNAKAQNMPKDNIDAAIKRASSKEGNLSEITYEGKANFGVLIIMECMTDNPTRTIANLKSYFNKTQGASIVPNGSLEFMFNRKSVFECLKNEVENLKLSLEDLEFALIDYGLEELEEVEDKIIIRGDYNSFKLLNEGFESLKLPILKASLQRIATTPIELNDEQMELTEKLLDRIEDDDDVVALYTNIE | failed |
| MGRDYQSEALAEQHLREAHLLAPDHAAVLIGLYRFYFYKGRLGEALEVAQACLCKAARDNGLASDWRKVRRGDAEFSSYSAVLPRFYLFALKAYAYLQMRLGQLDEGHAAVEKLLELDPTDKVGAAVLLDVWRRIGLEHHHHHH | failed |
| MGREFIPLFEDWAATYDQTVQGLDIQYKEAFRGYDHILDAIVRKSGTHVLEFGPGTGNLTAKLLDAGKTVFGIEPSPAMRKLASDKLSGRTEIVDGDFLTFPEPPFQADTIVSSYAFHHLTDEEKRAAIKQYGKYLHLHDKIVFADTVFENAQAYQQAIDKARSQGFYQLANDLETEHYPTLDALKEMFTAEGFAVRFTQQNDFVWIMEAIKRLEHHHHHH | failed |
| MGRISSGGMMFKAITTVAALVIATSAMAQDDLTISSLAKGETTKAAFNQMVQGHKLPAWVMKGGTYTPAQTVTLGDETYQVMSACKPHDCGSQRIAVMWSEKSNQMTGLFSTIDEKTSQEKLTWLNVNDALSIDGKTVLFAALTGSLENHPDGFNFK | not failed |
| MGRKDSLDLEEEAASGASSALEAGGSSGLEDVLPLLQQADELHRGDEQGKREGFQLLLNNKLVYGSRQDFLWRLARAYSDMCELTEEVSEKKSYALDGKEEAEAALEKGDESADCHLWYAVLCGQLAEHESIQRRIQSGFSFKEHVDKAIALQPENPMAHFLLGRWCYQVSHLSWLEKKTATALLESPLSATVEDALQSFLKAEELQPGFSKAGRVYISKCYRELGKNSEARWWMKLALELPDVTK | failed |
